Source: patent publication US20190040138A1 (AKESO BIOPHARMA, published 2019)
Changes are numbered by the printed parent chain.

Key:
[1] = biological target: T1, PD-1-mIgGFc fusion protein; assay: competitive ELISA on coated PD-1-mIgGFc; competitor PDL1-mIgG2aFc 0.3 µg/ml; antibody 1.5 µg/ml diluted 1:27; replicate 1
T1 construct: also called PD-1-mFc; PD-1-mIgGFc antigen
Protocol: (§1) A 96-well ELISA plate was coated with PD-1-mIgGFc antigen in a concentration of 0.5 μg/ml (50 μl per well) by incubation at 4° C. overnight.
(§2) The 18A10 H1L1, 18A10 H2L2 and 18A10 H3L3 antibodies each were diluted from 3 μg/ml in series by 1:3, with 7 gradient antibody solutions obtained for each antibody. The 7 gradient antibody solutions for each antibody and the blank PBS control (50 μl per well) were respectively added into the blocked 96-well ELISA plate for incubation at room temperature for 10 minutes.
(§3) After the 96-well ELISA plate was washed with the PBST buffer for three times and gently patted to dryness, goat anti-mouse IgG-HRP (H+L) as a secondary antibody in 1:5000 dilution (50 μl per well) was added for incubation at 37° C. for 1 hour.

[2] = biological target: T1, PD-1-mIgGFc fusion protein; assay: ELISA on coated PD-1-mFc; antibody 1 µg/ml diluted 1:729; replicate 2
Protocol: (§4) An ELISA plate was coated with PD-1-mFc antigen in a concentration of 0.5 μg/ml (50 μl per well) by incubation at 4° C. overnight.
(§5) After the ELISA plate was washed with the PBST buffer for three times and gently patted to dryness again, TMB as a developer in 50 μl per well was added for incubation at room temperature for 5 to 10 minutes.
(§6) The absorbance of solution in each well was measured with the microplate reader under a wavelength of 450 nm.

[3] = biological target: T1, PD-1-mIgGFc fusion protein; assay: competitive ELISA on coated PD-1-mIgGFc; competitor PDL1-mIgG2aFc 0.3 µg/ml; antibody 1.5 µg/ml; replicate 2
Protocol: as §1, §2, §6

[4] = biological target: T1, PD-1-mIgGFc fusion protein; assay: competitive ELISA on coated PD-1-mIgGFc; competitor PDL1-mIgG2aFc 0.3 µg/ml; antibody 1.5 µg/ml diluted 1:9; replicate 2
Protocol: as §1
[…] The 7 gradient antibody solutions for each antibody and the blank PBS control (50 μl per well) were respectively added into the blocked 96-well ELISA plate for incubation at room temperature for 10 minutes.
as §3

[5] = biological target: T1, PD-1-mIgGFc fusion protein; assay: competitive ELISA on coated PD-1-mIgGFc; competitor PDL1-mIgG2aFc 0.3 µg/ml; antibody 1.5 µg/ml diluted 1:81; replicate 1
Protocol: as §1, §2, §6

[6] = biological target: T1, PD-1-mIgGFc fusion protein; assay: competitive ELISA on coated PD-1-mIgGFc; competitor PDL1-mIgG2aFc 0.3 µg/ml; antibody 1.5 µg/ml diluted 1:81; replicate 2
Protocol: as §1, §2, §6

[7] = biological target: T2, PD-1 antigen stably expressed on the surface of BB007 cells (UniProt Q15116 25-288, limits assumed); assay: flow cytometry on BB007 cells; antibody 10 nM
T2 construct: whole, on cells; also called target protein PD-1 on the surface of the BB007 cell
T2 sequence (Q15116 25-288 limits assumed): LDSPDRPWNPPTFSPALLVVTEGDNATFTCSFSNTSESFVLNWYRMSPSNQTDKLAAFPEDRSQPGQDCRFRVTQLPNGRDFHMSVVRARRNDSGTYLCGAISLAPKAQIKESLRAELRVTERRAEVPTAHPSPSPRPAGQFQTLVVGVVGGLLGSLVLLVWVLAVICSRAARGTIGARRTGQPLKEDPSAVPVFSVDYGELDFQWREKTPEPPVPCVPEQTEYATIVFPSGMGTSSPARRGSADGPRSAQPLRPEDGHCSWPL
Protocol: (§7) The binding efficiencies of H1L1, H2L2 and H3L3 antibodies to PD-1 antigen stably expressed on the surface of cells (named as BB007 cells) were determined by flow cytometry. The BB007 cells were obtained by routine trypsin digestion, and then washed with PBS buffer once, followed by dividing into several tubes, with 2×10⁵ cells per tube. After dilution into concentrations of 20 nM, 10 nM, 5 nM, 1 nM, 0.1 nM and 0 nM with the PBS buffer containing 1% BSA for each of the H1L1, H2L2 and H3L3 antibodies, individual antibodies in a volume of 100 μl were added into individual tubes and incubated on ice for 1 hour. After the mixture was washed with the PBS buffer once, 100 μl FITC-Goat-Anti-Human IgG (in 1:500 dilution) was added for each tube and incubated on ice for 1 hour, followed by addition of 300 μl the PBS buffer for detecting fluorescence signal with a FITC channel on the flow cytometer.

[8] = biological target: T1, PD-1-mIgGFc fusion protein; assay: ELISA on coated PD-1-mFc; antibody 1 µg/ml diluted 1:9; replicate 1
Protocol: as §4, §5, §6

[9] = biological target: T1, PD-1-mIgGFc fusion protein; assay: competitive ELISA on coated PD-1-mIgGFc; competitor PDL1-mIgG2aFc 0.3 µg/ml; antibody 1.5 µg/ml diluted 1:3; replicate 1
Protocol: as §1, §2, §3

[10] = biological target: T1, PD-1-mIgGFc fusion protein; assay: ELISA on coated PD-1-mFc; antibody 1 µg/ml diluted 1:27; replicate 2
Protocol: as §4, §5, §6

[11] = biological target: T1, PD-1-mIgGFc fusion protein; assay: competitive ELISA on coated PD-1-mIgGFc; competitor PDL1-mIgG2aFc 0.3 µg/ml; antibody 1.5 µg/ml diluted 1:27; replicate 2
Protocol: as §1, §2, §6

[12] = biological target: T1, PD-1-mIgGFc fusion protein; assay: ELISA on coated PD-1-mFc; antibody 1 µg/ml diluted 1:81; replicate 1
Protocol: as §4
The ELISA plate coated with the PD-1-mFc antigen was blocked with 1% BSA in the PBS buffer at 37° C. for 2 hours, and washed with 1×PBST buffer containing 1% Tween-20 for three times, with gently patting to dryness.
as §6

[13] = biological target: biotin-labeled PD-1 antigen (UniProt Q15116 25-167, limits assumed, biotin-labeled (site not stated)); assay: BLI (Fortebio), biotin-labeled PD-1 on SA sensor
Chain of biotin-labeled PD-1 antigen (Q15116 25-167 limits assumed): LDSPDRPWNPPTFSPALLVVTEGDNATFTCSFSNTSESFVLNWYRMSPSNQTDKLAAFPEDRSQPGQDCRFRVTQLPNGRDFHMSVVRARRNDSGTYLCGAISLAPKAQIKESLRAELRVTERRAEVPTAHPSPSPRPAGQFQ
Protocol: Kinetic characteristic parameters of 18A10 H1L1, H2L2 and H3L3 antibodies were determined using the Fortebio molecule interaction instrument.
The biotin-labeled PD-1 antigen was immobilized on the surface of the SA sensor. […] Assays for H2L2 and H3L3 are the same as H1L1. Results of kinetic characteristic parameters of the H1L1, H2L2 and H3L3 antibodies are shown in Table 4, FIG. 4, FIG. 5 and FIG. 6.

[14] = biological target: T1, PD-1-mIgGFc fusion protein; assay: ELISA on coated PD-1-mFc; antibody 1 µg/ml diluted 1:3; replicate 2
Protocol: as §4, §5, §6

[15] = biological target: T1, PD-1-mIgGFc fusion protein; assay: ELISA on coated PD-1-mFc; antibody 1 µg/ml diluted 1:729; replicate 1
Protocol: as §4, §5, §6

[16] = biological target: T2, PD-1 antigen stably expressed on the …; assay: flow cytometry on BB007 cells; antibody 0.1 nM
Protocol: as §7

[17] = biological target: T1, PD-1-mIgGFc fusion protein; assay: ELISA on coated PD-1-mFc; antibody 1 µg/ml; replicate 2
Protocol: as §4, §5, §6

T1 sequence (chain, as listed by the source limits assumed): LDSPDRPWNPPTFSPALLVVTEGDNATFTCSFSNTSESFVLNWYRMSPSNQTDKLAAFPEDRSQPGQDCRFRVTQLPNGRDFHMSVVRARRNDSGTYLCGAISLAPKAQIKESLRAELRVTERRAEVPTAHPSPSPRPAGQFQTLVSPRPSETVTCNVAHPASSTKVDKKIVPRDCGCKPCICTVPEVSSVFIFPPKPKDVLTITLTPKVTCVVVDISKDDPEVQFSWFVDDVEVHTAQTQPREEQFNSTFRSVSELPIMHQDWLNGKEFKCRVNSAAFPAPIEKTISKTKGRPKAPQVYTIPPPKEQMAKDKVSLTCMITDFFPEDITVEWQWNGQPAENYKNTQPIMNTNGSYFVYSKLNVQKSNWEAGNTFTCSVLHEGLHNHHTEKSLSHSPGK

B1: humanized antibody 18A10 H2L2 (antibody, V domains shown)
VH: EVQLVQSGGGLVQPGGSLKLSCAASGFTFSSYGMSWVRQAPGKGLDWVATISGGGRDTYYPDSVKGRFTISRDNSKNNLYLQMNSLRAEDTALYYCARQKGEAWFAYWGQGTLVTVSS
VL: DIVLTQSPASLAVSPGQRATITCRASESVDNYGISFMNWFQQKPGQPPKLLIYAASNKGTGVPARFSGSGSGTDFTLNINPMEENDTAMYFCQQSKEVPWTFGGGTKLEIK
notes: also called H2L2 antibody
Q: What does the source list for B1?
A: absorbance at 450 nm (competition) [1]: 0.951; absorbance at 450 nm [2]: 0.224; absorbance at 450 nm (competition) [3]: 0.102; absorbance at 450 nm (competition) [4]: 0.506; absorbance at 450 nm (competition) [5]: 1.09; absorbance at 450 nm (competition) [6]: 1.1; fluorescence intensity [7]: 349; absorbance at 450 nm [8]: 2.18; absorbance at 450 nm (competition) [9]: 0.097; absorbance at 450 nm [10]: 1.63; absorbance at 450 nm (competition) [11]: 0.903; absorbance at 450 nm [12]: 1.04; Kd [13]: 0.0428 nM; koff [13]: 9.86e-06 s⁻¹; kon [13]: 231000 M⁻¹ s⁻¹; absorbance at 450 nm [14]: 2.36; absorbance at 450 nm [15]: 0.226; fluorescence intensity [16]: 19.1; absorbance at 450 nm [17]: 2.43

B2: humanized antibody 18A10 H1L1 (antibody, V domains shown)
VH: B1 VH with A40T, G42E
VL: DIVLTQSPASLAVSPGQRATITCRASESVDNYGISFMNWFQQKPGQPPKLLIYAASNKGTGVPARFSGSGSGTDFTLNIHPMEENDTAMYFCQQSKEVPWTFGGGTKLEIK
notes: also called H1L1 antibody
Q: B2 was tested. Which “absorbance at 450 nm (competition)” value [1] did it give?
A: Its value is 1.06.

Q: What about the “absorbance at 450 nm” value [2] of the same binder?
A: The value was 0.163.

Q: And the “absorbance at 450 nm (competition)” value [3]?
A: Its value is 0.107.

Q: And the “absorbance at 450 nm (competition)” value [4]?
A: The value was 0.586.

Q: What about the “absorbance at 450 nm (competition)” value [5] of the same binder?
A: The value was 1.29.

Q: And the “absorbance at 450 nm (competition)” value [6]?
A: The value was 1.14.

Q: And the fluorescence intensity [7]?
A: The fluorescence intensity was 316.

Q: And the “absorbance at 450 nm” value [8]?
A: Its value is 1.96.

Q: What about the “absorbance at 450 nm (competition)” value [9] of the same binder?
A: The value was 0.123.

Q: And the “absorbance at 450 nm” value [10]?
A: The value was 1.65.

Q: And the “absorbance at 450 nm (competition)” value [11]?
A: The value was 1.04.

Q: What about the “absorbance at 450 nm” value [12] of the same binder?
A: Its value is 0.883.

Q: What about the Kd [13] of the same binder?
A: The Kd was 0.036 nM.

Q: What about the koff [13] of the same binder?
A: The koff was 1.32e-05 s⁻¹.

Q: And the kon [13]?
A: Its kon is 367000 M⁻¹ s⁻¹.

Q: What about the “absorbance at 450 nm” value [14] of the same binder?
A: Its value is 2.34.

Q: And the “absorbance at 450 nm” value [15]?
A: The value was 0.186.

Q: And the fluorescence intensity [16]?
A: The fluorescence intensity was 19.

Q: What about the “absorbance at 450 nm” value [17] of the same binder?
A: The value was 2.32.

B3: humanized antibody 18A10 H3L3 (antibody, V domains shown)
VH: B1 VH with N78T, L93V
VL: DIVLTQSPASLAVSPGQRATITCRASESVDNYGISFMNWYQQKPGQPPKLLIYAASNKATGVPARFSGSGSGTDFTLNINPMEANDTAVYFCQQSKEVPWTFGGGTKLEIK
notes: also called H3L3 antibody
Q: What does the source list for B3?
A: absorbance at 450 nm (competition) [1]: 1; absorbance at 450 nm [2]: 0.185; absorbance at 450 nm (competition) [3]: 0.102; absorbance at 450 nm (competition) [4]: 0.678; absorbance at 450 nm (competition) [5]: 1.09; absorbance at 450 nm (competition) [6]: 1.19; fluorescence intensity [7]: 386; absorbance at 450 nm [8]: 1.95; absorbance at 450 nm (competition) [9]: 0.103; absorbance at 450 nm [10]: 1.5; absorbance at 450 nm (competition) [11]: 0.986; absorbance at 450 nm [12]: 0.928; Kd [13]: 0.114 nM; koff [13]: 1.56e-05 s⁻¹; kon [13]: 137000 M⁻¹ s⁻¹; absorbance at 450 nm [14]: 2.09; absorbance at 450 nm [15]: 0.2; fluorescence intensity [16]: 21.2; absorbance at 450 nm [17]: 2.44
